These results are taken from patent US8729012, “Controllable assembly and disassembly of nanoparticle systems via protein and DNA agents” (Brookhaven Science Associates, LLC).

For one series, the target named is T1, YieF (UniProt P0AGE6 P0AGE6:1-188).
T1 sequence: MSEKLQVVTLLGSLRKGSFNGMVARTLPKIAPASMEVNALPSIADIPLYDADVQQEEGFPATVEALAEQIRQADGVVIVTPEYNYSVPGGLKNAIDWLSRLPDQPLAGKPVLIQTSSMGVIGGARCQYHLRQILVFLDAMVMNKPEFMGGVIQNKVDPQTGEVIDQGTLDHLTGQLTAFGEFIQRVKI
Put plainly: negative control, no aggregation by DLS (2.5 uM) or UV-vis (15 uM). As to conditions: tags: polyhistidine. The procedure: (§1) The SP band is associated with isolated Au and assembled nanostructures. After adding increased g5p concentrations, the SP band at 525 nm of isolated ssDNA-Au was red-shifted with band broadening, indicative of either a decrease in interparticle distances or an increase of aggregate size (FIG. 7B). The higher extinction intensity observed over 10 μM g5p is due to a […] of the solution's turbidity resulting from the formation of larger aggregates. […] The sizes and morphologies of the g5p-mediated ssDNA-Au assemblies were studied using transmission electron microscopy (TEM) (FIG. 7C). […] Polyhistidine-tagged YieF protein (MW=20 KDa) was used as a negative control, for which no aggregation of particles was observed during DLS and UV-vis studies (FIGS. 8A and 8B).
(§2) The DNA for the binding study was obtained by annealing of two ssDNA with sequences, 5'-GACCACATACCGCAC-CATC(T)$32$CTGCTACGAGACTTC-3' (SEQ ID NO. 7) and 5'-(T)$32$GATGGTGCGGTATGTGGTC-3' (SEQ ID NO. 8), respectively. The annealed DNA (1 µM) was incubated with g5p at 37° C. for 10 minutes. […] Relative intensities of the DNA bands were analyzed after ethidium bromide staining Characterization UV-Visible spectra were obtained using a PerkinElmer Lambda 35 spectrometer. DLS was measured using a Malvern Zetasizer ZS instrument that is equipped with a 633 nm laser and a backscattering detector at 173°. […]

For series [1], the target named is T2, gene 5 protein (g5p) (bacteriophage M13, UniProt P69544 P69544:1-87).
T2 sequence: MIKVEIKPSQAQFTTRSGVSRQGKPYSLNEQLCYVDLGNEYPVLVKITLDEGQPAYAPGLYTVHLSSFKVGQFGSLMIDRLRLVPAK
Put plainly: g5p-dependent nanoparticle assembly by DLS, UV-vis, TEM; 10 mM Tris-HCl pH 7.44, 200 mM NaCl. Conditions: tags: His-tag (pET-30b, expressed in E. coli BL21-DE3; gene from NEB M13); chain copies: 2 inferred (homodimer). As to the method:
as §1, §2

In series [2] the target is T2, gene 5 protein (g5p). As to the kind of experiment: EMSA; three sequential stages: anti-parallel ssDNA region shifted at 10 uM g5p, then ssDNA tail, then dsDNA over 35 uM; 1 uM DNA, 10 mM Tris-HCl pH 7.4, 200 mM NaCl. As to conditions: tags: His-tag (pET-30b, expressed in E. coli BL21-DE3; gene from NEB M13); chain copies: 2 inferred (homodimer); 19 bp duplex, two anti-parallel T32 single strands, 3' ssDNA tail of 15 nt. The procedure: To study the distinct binding properties of g5p and its preferential DNA topology, an exemplary DNA structure with three distinct regions has been designed: a 19 base paired double-stranded DNA (dsDNA) region, followed by a 32 nucleotide anti-parallel poly-T ssDNA region, and a 3' extended ssDNA tail of 15 nucleotides. The DNA structure ([…]) was titrated with g5p (in 10 mM Tris-HCl, pH=7.4, 200 mM NaCl), and g5p binding was studied using the electrophoretic mobility shift assay. […] Since g5p has a much lower affinity to dsDNA than to ssDNA at high salt concentration, the following order of occupancy is hypothesized: binding to the anti-parallel ssDNA region with a large shift of the DNA band at 10 μM g5p, followed by binding to the ssDNA tail, and finally to dsDNA at g5p concentrations over 35 μM. Thus, g5p binds to ssDNA regions before it binds to the dsDNA region, and its binding affinity for the anti-parallel region is slightly higher than for the ssDNA tail. […] By comparing the intensity of the band in the presence of 30 μM g5p to the band under control conditions without g5p, the hybridization efficiency for C-ssDNA to the g5p-complexed ssDNA tail was determined to be approximately 82%, indicating effective DNA hybridization without significant inhibition by g5p. […]

The target in series [3] is T2, gene 5 protein (g5p). As to the kind of experiment: EMSA; C-ssDNA added to the complex; 20 and 30 uM g5p shifts collapse to one band of higher mobility (anti-parallel region bound); tail hybridization about 82% at 30 uM g5p. As to conditions: tags: His-tag (pET-30b, expressed in E. coli BL21-DE3; gene from NEB M13); chain copies: 2 inferred (homodimer); 19 bp duplex, anti-parallel T32 strands, tail hybridized as 15 bp duplex. The procedure:
Since g5p has a much lower affinity to dsDNA than to ssDNA at high salt concentration, the following order of occupancy is hypothesized: binding to the anti-parallel ssDNA region with a large shift of the DNA band at 10 μM g5p, followed by binding to the ssDNA tail, and finally to dsDNA at g5p concentrations over 35 μM. Thus, g5p binds to ssDNA regions before it binds to the dsDNA region, and its binding affinity for the anti-parallel region is slightly higher than for the ssDNA tail. To study the effect of g5p association on forming dsDNA heteroduplexes, and confirm the proposed binding order to the ssDNA regions, an equal amount (1 μM) of C-ssDNA that can hybridize to the ssDNA tail was added. […] Smearing of the band after C-ssDNA addition at 45 μM g5p supports g5p binding to dsDNA at this concentration. […]
The DNA for the binding study was obtained by annealing of two ssDNA with sequences, 5'-GACCACATACCGCAC-CATC(T)$32$CTGCTACGAGACTTC-3' (SEQ ID NO. 7) and 5'-(T)$32$GATGGTGCGGTATGTGGTC-3' (SEQ ID NO. 8), respectively. […] Relative intensities of the DNA bands were analyzed after ethidium bromide staining Characterization UV-Visible spectra were obtained using a PerkinElmer Lambda 35 spectrometer. DLS was measured using a Malvern Zetasizer ZS instrument that is equipped with a 633 nm laser and a backscattering detector at 173°.
For orientation: Mobility shift assays separate free from complexed probe on a gel.

B1: ssDNA on gold nanoparticles (ssDNA-Au) (ssDNA)
DNA: TTTTTTTTTTTTTTTTAACCTAACCTTCAT
modifications: 5'-HS-C3H6, about 50 copies per gold nanoparticle
In the case of B1, the values for the binding result with YieF and in the series with gene 5 protein (g5p) [1] were “no binding” and “binds”, respectively.

B2: annealed 19 bp dsDNA / anti-parallel poly-T32 / 15 nt ssDNA tail (structured_DNA)
DNA 1: GACCACATACCGCACCATCTTTTTTTTTTTTTTTTTTTTTTTTTTTTTTTTCTGCTACGAGACTTC
DNA 2: TTTTTTTTTTTTTTTTTTTTTTTTTTTTTTTTGATGGTGCGGTATGTGGTC
Consider B2, for which the binding result in the series with gene 5 protein (g5p) [2] is listed as “binds”.

B3: annealed DNA with tail hybridized to C-ssDNA (structured_DNA)
DNA 1: B2 DNA 1
DNA 2: B2 DNA 2
DNA 3: GAAGTCTCGTAGCAG
For B3, the binding result in the series with gene 5 protein (g5p) [3] is reported as “binds”.
